The supplement of paper PMC11316812
± gives the standard deviation of the averaged measurements.

Key:
hTERT-HMEC = assay: percentage of EdU-negative (G0-arrested) nuclei per well, 72 h; higher = more G0 arrest; settings: reference: sequence is the full UniProt precursor, the tested protein was the secreted form or ectodomain
MCF7 = assay: as above; settings: reference: sequence is the full UniProt precursor, the tested protein was the secreted form or ectodomain
[1] = protein concentration 0.0133825 µM
[2] = protein concentration 0.133825 µM
[3] = protein concentration 0.0305714 µM
[4] = protein concentration 0.305714 µM
[5] = protein concentration 0.0225 µM
[6] = protein concentration 0.00771429 µM
[7] = protein concentration 0.0771429 µM
[8] = protein concentration 0.0111425 µM
[9] = protein concentration 0.111425 µM
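Further: secreted proteins added to cultured cells, EdU pulse at the end, nuclei found by Hoechst imaging, EdU status from nuclear versus surrounding ring intensity ratio, PBS as neutral control.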

For “MGPLSAPPCTQHITWKGLLLTASLLNFWNLPTTAQVIIEAKPPKVSEGKDVLLLVHNLPQNLTGYIWYKGQMTDLYHYITSYVVHGQIIYGPAYSGRETVYSNASLLIQNVTQEDAGSYTLHIIKRGDGTGGVTGYFTVTLYSETPKPSISSSNLNPREVMEAVRLICDPETPDASYLWLLNGQNLPMTHRLQLSKTNRTLYLFGVTKYIAGPYECEIRNPVSASRSDPVTLNLLPKLPMPYITINNLNPREKKDVLAFTCEPKSRNYTYIWWLNGQSLPVSPRVKRPIENRILILPSVTRNETGPYQCEIRDRYGGIRSNPVTLNVLYGPDLPRIYPSFTYYRSGENLDLSCFADSNPPAEYSWTINGKFQLSGQKLFIPQITTNHSGLYACSVRNSATGKEISKSMIVKVSETASPQVTYAGPNTWFQEILLL”, the “percentage of EdU-negative” value (hTERT-HMEC; [1]) was 4.917 ± 0.044%, the “percentage of EdU-negative” value (hTERT-HMEC; [2]) was 5.76 ± 1.7% and the “percentage of EdU-negative” value (MCF7; [1]) was 24.7 ± 1.5%. The “percentage of EdU-negative” value (MCF7; [2]) was 27.3 ± 1.4%.

In the case of “MSDSKEPRLQQLGLLEEEQLRGLGFRQTRGYKSLAGCLGHGPLVLQLLSFTLLAGLLVQVSKVPSSISQEQSRQDAIYQNLTQLKAAVGELSEKSKLQEIYQELTQLKAAVGELPEKSKLQEIYQELTRLKAAVGELPEKSKLQEIYQELTWLKAAVGELPEKSKMQEIYQELTRLKAAVGELPEKSKQQEIYQELTRLKAAVGELPEKSKQQEIYQELTRLKAAVGELPEKSKQQEIYQELTQLKAAVERLCHPCPWEWTFFQGNCYFMSNSQRNWHDSITACKEVGAQLVVIKSAEEQNFLQLQSSRSNRFTWMGLSDLNQEGTWQWVDGSPLLPSFKQYWNRGEPNNVGEEDCAEFSGNGWNDDKCNLAKFWICKKSAASCSRDEEQFLSPAPATPNPPPA [Q9NNX6]”, the “percentage of EdU-negative” value (hTERT-HMEC; [3]) is reported as 4.977 ± 0.027%, the “percentage of EdU-negative” value (hTERT-HMEC; [4]) is reported as 17 ± 4.1% and the “percentage of EdU-negative” value (MCF7; [3]) is reported as 26.2 ± 1%. For the same sequence, the “percentage of EdU-negative” value (MCF7; [4]) was 26.5 ± 0.49%.

“MKLHYVAVLTLAILMFLTWLPESLSCNKALCASDVSKCLIQELCQCRPGEGNCSCCKECMLCLGALWDECCDCVGMCNPRNYSDTPPTSKSTVEELHEPIPSLFRALTEGDTQLNWNIVSFPVAEELSHHENLVSFLETVNQPHHQNVSVPSNNVHAPYSSDKEHMCTVVYFDDCMSIHQCKISCESMGASKYRWFHNACCECIGPECIDYGSKTVKCMNCMF [Q9GZX9]” was tested, and the “percentage of EdU-negative” value (hTERT-HMEC; [5]) was 4.64 ± 0.11%, the “percentage of EdU-negative” value (hTERT-HMEC; protein concentration 0.225 µM) was 12.59 ± 0.086% and the “percentage of EdU-negative” value (MCF7; [5]) was 23.8 ± 4.6%. The “percentage of EdU-negative” value (MCF7; protein concentration 0.225 µM) was 28.8 ± 0.54%.

In the case of “MWPLTVPPPLLLLLCSGLAGQTLFQNPEEGWQLYTSAQAPDGKCICTAVIPAQSTCSRDGRSRELRQLMEKVQNVSQSMEVLELRTYRDLQYVRGMETLMRSLDARLRAADGSLSAKSFQELKDRMTELLPLSSVLEQYKADTRTIVRLREEVRNLSGSLAAIQEEMGAYGYEDLQQRVMALEARLHACAQKLGCGKLTGVSNPITVRAMGSRFGSWMTDTMAPSADSRVWYMDGYYKGRRVLEFRTLGDFIKGQNFIQHLLPQPWAGTGHVVYNGSLFYNKYQSNVVVKYHFRSRSVLVQRSLPGAGYNNTFPYSWGGFSDMDFMVDESGLWAVYTTNQNAGNIVVSRLDPHTLEVMRSWDTGYPKRSAGEAFMICGVLYVTNSHLAGAKVYFAYFTNTSSYEYTDVPFHNQYSHISMLDYNPRERALYTWNNGHQVLYNVTLFHVISTSGDP”, the “percentage of EdU-negative” value (hTERT-HMEC; [6]) is reported as 4.89 ± 0.63%, the “percentage of EdU-negative” value (hTERT-HMEC; [7]) is reported as 5.22 ± 0.46% and the “percentage of EdU-negative” value (MCF7; [6]) is reported as 24.6 ± 2.2%. The “percentage of EdU-negative” value (MCF7; [7]) was 29 ± 4.7%.

With “MVLLWEPAGAWLALGLALALGPSVAAAAPRQDCTGVECPPLENCIEEALEPGACCATCVQQGCACEGYQYYDCLQGGFVRGRVPAGQSYFVDFGSTECSCPPGGGKISCQFMLCPELPPNCIEAVVVADSCPQCGQVGCVHAGHKYAAGHTVHLPPCRACHCPDAGGELICYQLPGCHGNFSDAEEGDPERHYEDPYSYDQEVAEVEAATALGGEVQAGAVQAGAGGPPAALGGGSQPLSTIQAPPWPAVLPRPTAAAALGPPAPVQAKARRVTEDSEEEEEEEEEREEMAVTEQLAAGGHRGLDGLPTTAPAGPSLPIQEERAEAGARAEAGARPEENLILDAQATSRSTGPEGVTHAPSLGKAALVPTQAVPGSPRDPVKPSPHNILSTSLPDAAWIPPTREVPRKPQVLPHSHVEEDTDPNSVHSIPRSSPEGSTKDLIETCCAAGQQWAIDNDECLEIPESGTEDNVCRTAQRHCCVSYLQEKSCMAGVLGAKEGETCGAEDNDSCGISLYKQCCDCCGLGLRVRAEGQSCESNPNLGYPCNHVMLSCCEGEEPLIVPEVRRPPEPAAAPRRVSEAEMAGREALSLGTEAELPNSLPGDDQDECLLLPGELCQHLCINTVGSYHCACFPGFSLQDDGRTCRPEGHPPQPEAPQEPALKSEFSQVASNTIPLPLPQPNTCKDNGPCKQVCSTVGGSAICSCFPGYAIMADGVSCEDINECVTDLHTCSRGEHCVNTLGSFHCYKALTCEPGYALKDGECEDVDECAMGTHTCQPGFLCQNTKGSFYCQARQRCMDGFLQDPEGNCVDINECTSLSEPCRPGFSCINTVGSYTCQRNPLICARGYHASDDGTKCVDVNECETGVHRCGEGQVCHNLPGSYRCDCKAGFQRDAFGRGCIDVNECWASPGRLCQHTCENTLGSYRCSCASGFLLAADGKRCEDVNECEAQRCSQECANIYGSYQCYCRQGYQLAEDGHTCTDIDECAQGAGILCTFRCLNVPGSYQCACPEQGYTMTANGRSCKDVDECALGTHNCSEAETCHNIQGSFRCLRFECPPNYVQVSKTKCERTTCHDFLECQNSPARITHYQLNFQTGLLVPAHIFRIGPAPAFTGDTIALNIIKGNEEGYFGTRRLNAYTGVVYLQRAVLEPRDFALDVEMKLWRQGSVTTFLAKMHIFFTTFAL” the “percentage of EdU-negative” value (hTERT-HMEC; [8]) was 5.72 ± 0.17%, the “percentage of EdU-negative” value (hTERT-HMEC; [9]) was 6.99 ± 0.78% and the “percentage of EdU-negative” value (MCF7; [8]) was 23.7 ± 1.3%. The “percentage of EdU-negative” value (MCF7; [9]) was 25.1 ± 2.6%.
